{"source": "patent US20030045688A1", "about": "“Human interleukin-four induced protein” (priority 2000, published 2003)", "molecules": {"B1": {"name": "FIG. 1: mouse immediate early interleukin-four induced protein with L-amino acid oxidase activity (SEQ ID NO:1), expressed in transfected cells (protein, listed as Mus sp.)", "chain": "MAGLALRLVLAATLLGLAGSLDWKAASSLNPIEKCMEDHDYEQLLKVVTLGLNRTSKPQKVVVVGAGVAGLVAAKMLSDAGHKVTILEADNRIGGRIFTFRDEKTGWIGELGAMRMPSSHRILHKLCRTLGLNLTQFTQYDENTWTEVHNVKLRNYVVEKMPEKLGYNLNNRERGHSPEDIYQMALNKAFKDLKALGCKKAMNKFNKHTLLEYLLEEGNLSRPAVQLLGDVMSEEGFFYLSFAEALRAHACLSDRLRYSRIVGGWDLLPRALLSSLSGALLLNAPVVSITQGRNDVRVHIATSLHSEKTLTADVVLLTASGPALQRITFSPPLTRKRQEALRALHYVAASKVFLSFRRPFWHEEHIEGGHSNTDRPSRLIFYPARGEGSLLLASYTWSDAAAPFAGLSTDQTLRLVLQDVAALHGPVVFRLWDGRGVVKRWAEDPHSQGGFVVQPPLYGREAEDYDWSAPFGRIYFAGEHTALPHGWVETAVKSGLRAAVRINNNYGYGEVDPQMMEHAYAEANYLDQYPEGERPEEQQAREEVSPDEQEPSHKHLLVETSPEGQQHAFVEAIPELQGHVFVETVPQEKGHAHQNIYPSEHVQVHGEVIPEWHGHGGSGTPQMHRVGDHS"}}, "key": {"[1]": {"assay": "FIG. 1 enzyme assay using OPD (L-amino acid oxidase activity)", "format": "biochemical", "conditions": "for substrate preference of LAAO activity: L-amino acid substrates; for pH optimum of L-amino acid oxidase (LAAO) activity: pH value at which activity is maximal", "experimental": "3,3′,5,5′-tetramethylbenzidine (TMB) or o-phenylenediamine (OPD) is used as a chromogenic substrate in the FIG. 1 assay. TMB is advantageous because it is not mutagenic and therefore not likely to be carcinogenic, whereas OPD and o-dianisidine are mutagenic.\nTo perform these measurements, we developed a FIG. 1 enzyme assay using OPD as a substrate.\nFor the FIG. 1 enzyme assay using OPD, 10 μl of sample is added to a 190 μl assay mixture resulting in a 200 μl reaction with final concentration of 5 to 50 mM L-phenylalanine (Sigma, St. Louis, Mo.), 10 U/ml peroxidase (Sigma), 0.5 mg/ml OPD (Sigma), and 52.5 mM sodium acetate (pH 4). The reaction is incubated for 2 hours at 37° C., after which the reaction is stopped by the addition of 11 μl 36N sulfuric acid (H2SO4). The quantity of H2O2 generated is determined by measuring absorbance at 490 nm. FIG. 1 enzyme activity in Units is determined by comparison with a standard curve generated using known concentrations of H2O2. The amount of H2O2 (μM) corresponding to the observed absorbance at 490 nm is the amount of L-phenylalanine oxidized, since one H2O2 molecule is produced per L-amino acid oxidized. Therefore, FIG. 1 enzyme units can be calculated as follows:\nUnits (μmol/min)=(μM)/min×V\nOne unit oxidizes one micromole of L-phenylalanine per minute at 37° C. and pH 4."}, "[2]": {"system": "murine B cell line (M.12.4.1)", "assay": "Transfection of murine B cell line with vectors expressing mouse FIG. 1; cell toxicity", "format": "cell-based", "conditions": "clones expressing FIG. 1 in the insoluble cell fraction; no stable transfectants obtained", "from_the_text": "A murine B cell line (M.12.4.1) and fibroblast line (NIH3T3) is transfected with vectors expressing mouse FIG. 1. Specifically, a 1985 bp BamHI fragment containing the full length mouse FIG. 1 cDNA is inserted into the BamHI site of the pREP9 vector (InVitrogen, Carlsbad, Calif.), resulting in pMN10-9, a plasmid that expresses FIG. 1 mRNA from the vector's RSV 3′ LTR promoter. A 1930 bp PvuII/EcoRI fragment containing the full length mouse FIG. 1 cDNA is inserted into the Ecl126II/EcoRI sites of pIRES2-EGFP (Clontech), resulting in plasmid mFIG. 1-iGFP (also known as pAFFP), a plasmid that expresses FIG. 1 mRNA from the vector's CMV promoter.\nNIH 3T3 cells are transfected with plasmid DNA using the calcium phosphate method. In particular, a Calcium Phosphate Mammalian Cell Transfection Kit (5 Prime→3 Prime, Inc., Boulder, Colo.) or Calcium Phosphate Transfection System (Life Technologies, Inc., Rockville, Md.) is used. A 40 μg plasmid DNA/calcium phosphate precipitate is prepared according to manufacturer's protocol and used to transfect 2×10^6 cells. M12.4. 1 cells are transfected by electorporation or with an Effectene Transfection Reagent (Qiagen, Inc., Valencia, Calif.). […]\nDuring the selection of M.12.1 bulk transfectants, LAAO activity is detected after 15 days, peaking at 17 days, declining after 20 days to undetectable using procedures described above. […]"}, "[3]": {"conditions": "listed as interleukin four induced protein"}}}
{"molecule": "B1", "values": [{"measurement": "substrate preference of LAAO activity", "setting": "[1]", "value": "prefers aromatic amino acids as a substrate, with phenylalanine (Phe) being the optimal substrate"}, {"measurement": "substrate preference of LAAO activity", "setting": "[1]; listed as FIG. 1 protein", "value": "prefers aromatic L-amino acids for substrates, particularly L-phenylalanine"}, {"measurement": "substrate preference of LAAO activity", "setting": "[1]; [3]", "value": "lesser specificity for other aromatic amino acids such as tyrosine and tryptophan"}, {"measurement": "LAAO activity at pH values other than the optimum", "setting": "[1]; compared with pH 4.0", "value": "lower activity at pH 5, 8 and 9"}, {"measurement": "pH optimum of L-amino acid oxidase (LAAO) activity", "setting": "[1]", "value": 4}, {"measurement": "pH optimum of L-amino acid oxidase (LAAO) activity", "setting": "[1]; listed as FIG. 1 protein", "value": 4}, {"measurement": "pH optimum of L-amino acid oxidase (LAAO) activity", "setting": "[1]; [3]", "value": 4.0}, {"measurement": "cell death in FIG. 1 transfectants", "setting": "[2]", "value": "significant cell death"}]}
